The record followed here is US20020110800.

This data set deals with wild-type TrkA, baculovirus-expressed, activated (autophosphorylated) (UniProt P04629).

As to SHP-1, the “dephosphorylation of 32P-autophosphorylated Trk in vitro” value is listed as “approximately 5-fold dephosphorylation”.
